From article PMC7806871 (Cell Death Discovery, 2021)

Target: T1, Tuberculosis necrotizing toxin (TNT), C-terminal domain of CpnT, recombinant TNT-His6x (M. tuberculosis, UniProt O05442 648-846)
T1 construct: not shown: His6, C-terminal, kept
T1 sequence: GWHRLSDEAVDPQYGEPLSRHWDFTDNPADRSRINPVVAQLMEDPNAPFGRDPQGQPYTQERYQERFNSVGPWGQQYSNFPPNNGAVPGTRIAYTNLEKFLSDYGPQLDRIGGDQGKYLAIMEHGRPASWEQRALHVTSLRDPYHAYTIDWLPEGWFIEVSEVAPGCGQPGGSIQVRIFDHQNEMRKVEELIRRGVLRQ
Assay: ELISA
Conditions: both partners purified

B1: Immunity factor for TNT (IFT), recombinant IFT-His6x (natural protein)
chain: TIGVDLSTDLQDWIRLSGMNMIQGSETNDGRTILWNKGGEVRYFIDRLAGWYVITSSDRMSREGYEFAAASMSVIEKYLYGYFGGSVRSERELPAIRAPFQPEELMPEYSIGTMTFAGRQRDTLIDSSGTVVAITAADRLVELSHYLDVSVNVIKDSFLDSEGKPLFTLWKDYKG
notes: not shown: His6, C-terminal, kept
  binding result: binds
